B1: RCP-11: recombinant polypeptide for culture, SEQ ID NO: 25; vitronectin positions 1-55, 269-277, 295-341, 342-373, C274S (protein)
chain: MDQESCKGRCTEGFNVDKKCQCDELCSYYQSCCTDYTAECKPQVTRGDVFTMPEDESQEESEGSEDIFELLFWGRTSAGTRQPQFISRDWHGVPGQVDAAMAGRIYISGMAPRPSLAKKQRFRHRNRKGYRSQRGHSRGRNQN
modifications: Vitronectin-derived Recombinant Protein (RCP-11)
notes: vitronectin positions 1-55, 269-277, 295-341, 342-373, C274S
B2: RCP-1: recombinant polypeptide for culture, SEQ ID NO: 15; human vitronectin positions 1-55 and 269-459 with N-terminal methionine (protein)
chain: MDQESCKGRCTEGFNVDKKCQCDELCSYYQSCCTDYTAECKPQVTRGDVFTMPEDEPSQEECEGSSLSAVFEHFAMMQRDSWEDIFELLFWGRTSAGTRQPQFISRDWHGVPGQVDAAMAGRIYISGMAPRPSLAKKQRFRHRNRKGYRSQRGHSRGRNQNSRRPSRATWLSLFSSEESNLGANNYDDYRMDWLVPATCEPIQSVFFFSGDKYYRVNLRTRRVDTVDPPYPRSIAQYWLGCPAPGHL
modifications: Vitronectin-derived Recombinant Protein (RCP-1)
B3: RCP-5: recombinant polypeptide for culture, SEQ ID NO: 19; vitronectin positions 1-55, 302-341, 342-373 (protein)
chain: MDQESCKGRCTEGFNVDKKCQCDELCSYYQSCCTDYTAECKPQVTRGDVFTMPEDEFWGRTSAGTRQPQFISRDWHGVPGQVDAAMAGRIYISGMAPRPSLAKKQRFRHRNRKGYRSQRGHSRGRNQN
modifications: Vitronectin-derived Recombinant Protein (RCP-5)

Columns and labels:
iPS cells = test: Growth evaluation, number of cells after 3 days; format: cell-based, human; conditions: 5,000 cells/well
Procedure: By adding RCP-1 to RCP-11 and Human Recombinant Laminin-511 as control at the concentration shown in Table 9, samples 1 to 12 were prepared. The samples were seeded into a 96-well plate, onto which each of the polypeptides was adsorbed in the same manner as in <Cell adhesiveness evaluation 1>, at a ratio of 5,000 cells/well and cultured for 3 days in a CO2 incubator at 37° C. The number of cells after 3 days was calculated in the same manner as in <Cell adhesiveness evaluation 1>. In Table 9, the number of cells after 3 days is expressed as a ratio calculated by regarding the number of cells obtained by using the sample 1 as being 100%.

human iPS cells ("Tic") = test: Cell adhesiveness evaluation 1 (ALP activity of adhesive iPS cells); format: cell-based; conditions: 30,000 cells/well, 24 hours, natural vitronectin (sample 15) = 100%, n=3
Procedure, shortened: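 Peptides and controls were adsorbed onto wells for 2 h at 37 °C. Single-cell human iPS cells in TeSR2 with 10 μM Y-27362 were seeded at 30,000 cells/well. After 24 h, non-adherent cells were washed off and adherent cells fixed; cell number came from ALP activity via a calibration curve. Adhesion is expressed relative to natural vitronectin (100%), n=3.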

[1] = Aggregation after dialysis of purified polypeptide solution; format: physicochemical; set-up: key: G: The formation of an aggregate was not observed.; A: The formation of particles having a particle size of about 100 nm was observed.; B: The formation of an aggregation of particles having a particle size of equal to or greater than 1 mm was visually observed
Procedure: For RCP-1 to RCP-11, each of the purified polypeptide solutions was dialyzed using Slide-A-Lizer (3.5 K MWCO.). Basically, by using a dialysis buffer (PBS, 1.5 M NaCl, 0.5 M L-arginine, 1 mM EDTA, pH 7.4) as an outer dialysate, urea was removed by stepwise dialysis. The concentration of the end-product of dialysis was calculated from the absorbence at 280 nm by using NanoDrop (Thermo Fisher Scientific Inc.).
Whether or not aggregation was occurred was evaluated based on the scale of A, and B as shown below.
G: The formation of an aggregate was not observed.
A: The formation of particles having a particle size of about 100 nm was observed.
B: The formation of an aggregation of particles having a particle size of equal to or greater than 1 mm was visually observed.

Molecule	Number of cells after 3 days (%) (iPS cells; added amount 5 μg/cm^2, sample 1 (RCP-1) = 100%)	Cell adhesion rate (%) (human iPS cells ("Tic"); added amount 5 μg/cm^2)	Aggregation [1]	Number of cells after 3 days (%) (iPS cells; added amount 80 μg/cm^2, sample 1 = 100%)	Cell adhesion rate (%) (human iPS cells ("Tic"); added amount 200 pmol/cm^2)	Number of cells after 3 days (%) (iPS cells; added amount 10 μg/cm^2, sample 1 (RCP-1) = 100%)	Cell adhesion rate (%) (human iPS cells ("Tic"); added amount 10 μg/cm^2)
B1	153.5%	95.9 ± 4.6%	A	–	–	–	–
B2	–	–	A	100.0%	109.3 ± 5.3%	–	–
B3	–	–	G	–	–	121.2%	94.1 ± 6.5%

Source: patent US10487307B2, “Culture method for pluripotent stem cells” (FUJIFILM CORPORATION, priority 2013, dated 2019)
